Assay results: the supplement of paper PMC11246515
± gives the standard deviation of the averaged measurements.

Test: total protein half-life in vivo (active degradation + dilution); higher = more stable protein
[1] = E. coli NCM3722 delta-clpP delta-lon delta-hslV, growth: N-lim chemostat, doubling time 6 h
[2] = E. coli NCM3722 delta-clpP, growth: N-lim chemostat, doubling time 6 h
[3] = E. coli NCM3722 delta-hslV, growth: N-lim chemostat, doubling time 6 h
[4] = E. coli NCM3722 delta-lon, growth: N-lim chemostat, doubling time 6 h
[5] = E. coli NCM3722 delta-smpB, growth: N-lim chemostat, doubling time 6 h
[6] = wild type E. coli NCM3722, growth: C-lim chemostat, doubling time 3 h
[7] = wild type E. coli NCM3722, growth: C-lim chemostat, doubling time 6 h
[8] = wild type E. coli NCM3722, growth: N-lim chemostat, doubling time 6 h
[9] = wild type E. coli NCM3722, growth: N-lim chemostat, doubling time 12 h
[10] = wild type E. coli NCM3722, growth: P-lim chemostat, doubling time 6 h
[11] = wild type E. coli NCM3722, growth: P-lim chemostat, doubling time 12 h
[12] = wild type E. coli NCM3722, growth: C-lim chemostat, doubling time 12 h

Sequence	total protein half-life in vivo [1]	total protein half-life in vivo [2]	total protein half-life in vivo [3]	total protein half-life in vivo [4]	total protein half-life in vivo [5]	total protein half-life in vivo [6]	total protein half-life in vivo [7]	total protein half-life in vivo [8]	total protein half-life in vivo [9]	total protein half-life in vivo [10]	total protein half-life in vivo [11]	total protein half-life in vivo [12]
MQVLPPSSTGGPSRLFIMRPVATTLLMVAILLAGIIGYRALPVSALPEVDYPTIQVVTLYPGASPDVMTSAVTAPLERQFGQMSGLKQMSSQSSGGASVITLQFQLTLPLDVAEQEVQAAINAATNLLPSDLPNPPVYSKVNPADPPIMTLAVTSTAMPMTQVEDMVETRVAQKISQISGVGLVTLSGGQRPAVRVKLNAQAIAALGLTSETVRTAITGANVNSAKGSLDGPSRAVTLSANDQMQSAEEYRQLIIAYQNGAPIRLGDVATVEQGAENSWLGAWANKEQAIVMNVQRQPGANIISTADSIRQMLPQLTESLPKSVKVTVLSDRTTNIRASVDDTQFELMMAIALVVMIIYLFLRNIPATIIPGVAVPLSLIGTFAVMVFLDFSINNLTLMALTIATGFVVDDAIVVIENISRYIEKGEKPLAAALKGAGEIGFTIISLTFSLIAVLIPLLFMGDIVGRLFREFAITLAVAILISAVVSLTLTPMMCARMLSQESLRKQNRFSRASEKMFDRIIAAYGRGLAKVLNHPWLTLSVALSTLLLSVLLWVFIPKGFFPVQDNGIIQGTLQAPQSSSFANMAQRQRQVADVILQDPAVQSLTSFVGVDGTNPSLNSARLQINLKPLDERDDRVQKVIARLQTAVDKVPGVDLFLQPTQDLTIDTQVSRTQYQFTLQATSLDALSTWVPQLMEKLQQLPQLSDVSSDWQDKGLVAYVNVDRDSASRLGISMADVDNALYNAFGQRLISTIYTQANQYRVVLEHNTENTPGLAALDTIRLTSSDGGVVPLSSIAKIEQRFAPLSINHLDQFPVTTISFNVPDNYSLGDAVQAIMDTEKTLNLPVDITTQFQGSTLAFQSALGSTVWLIVAAVVAMYIVLGILYESFIHPITILSTLPTAGVGALLALLIAGSELDVIAIIGIILLIGIVKKNAIMMIDFALAAEREQGMSPREAIYQACLLRFRPILMTTLAALLGALPLMLSTGVGAELRRPLGIGMVGGLIVSQVLTLFTTPVIYLLFDRLALWTKSRFARHEEEA	6.53 ± 0.31 h	6.24 ± 0.12 h	6.58 ± 0.74 h	6.07 ± 0.56 h	5.45 ± 0.45 h	2.98 h	6.17 ± 0.74 h	6.15 ± 0.94 h	13.1 ± 0.4 h	7.07 ± 0.49 h	12.347 ± 0.0014 h	–
MQYHRIPHSSLEVSTLGLGTMTFGEQNSEADAHAQLDYAVAQGINLIDVAEMYPVPPRPETQGLTETYVGNWLAKHGSREKLIIASKVSGPSRNNDKGIRPDQALDRKNIREALHDSLKRLQTDYLDLYQVHWPQRPTNCFGKLGYSWTDSAPAVSLLDTLDALAEYQRAGKIRYIGVSNETAFGVMRYLHLADKHDLPRIVTIQNPYSLLNRSFEVGLAEVSQYEGVELLAYSCLGFGTLTGKYLNGAKPAGARNTLFSRFTRYSGEQTQKAVAAYVDIARRHGLDPAQMALAFVRRQPFVASTLLGATTMDQLKTNIESLHLELSEDVLAEIEAVHQVYTYPAP [P0A9T4]	5.76 ± 0.33 h	5.29 ± 0.14 h	5.5 ± 0.14 h	4.99 ± 0.068 h	4.6 ± 0.38 h	3.41 ± 0.077 h	5.9 ± 0.19 h	4.88 ± 0.55 h	8.51 ± 0.57 h	6.32 ± 0.44 h	12.8 ± 0.13 h	10.4 ± 0.85 h
MQYIKIHALDNVAVALADLAEGTEVSVDNQTVTLRQDVARGHKFALTDIAKGANVIKYGLPIGYALADIAAGVHVHAHNTRTNLSDLDQYRYQPDFQDLPAQAADREVQIYRRANGDVGVRNELWILPTVGCVNGIARQIQNRFLKETNNAEGTDGVFLFSHTYGCSQLGDDHINTRTMLQNMVRHPNAGAVLVIGLGCENNQVAAFRETLGDIDPERVHFMICQQQDDEIEAGIEHLHQLYNVMRNDKREPGKLSELKFGLECGGSDGLSGITANPMLGRFSDYVIANGGTTVLTEVPEMFGAEQLLMDHCRDEATFEKLVTMVNDFKQYFIAHDQPIYENPSPGNKAGGITTLEDKSLGCTQKAGSSVVVDVLRYGERLKTPGLNLLSAPGNDAVATSALAGAGCHMVLFSTGRGTPYGGFVPTVKIATNSELAAKKKHWIDFDAGQLIHGKAMPQLLEEFIDTIVEFANGKQTCNERNDFRELAIFKSGVTL	4.17 ± 0.22 h	3.03 ± 0.15 h	2.65 ± 0.042 h	3.4 h	2.51 ± 0.36 h	2.61 ± 0.27 h	3.9 ± 0.23 h	2.63 ± 0.13 h	3.74 ± 0.76 h	3.94 ± 1.4 h	6.84 ± 1.4 h	4.43 ± 0.69 h
MQYWGKIIGVAVALLMGGGFWGVVLGLLIGHMFDKARSRKMAWFANQRERQALFFATTFEVMGHLTKSKGRVTEADIHIASQLMDRMNLHGASRTAAQNAFRVGKSDNYPLREKMRQFRSVCFGRFDLIRMFLEIQIQAAFADGSLHPNERAVLYVIAEELGISRAQFDQFLRMMQGGAQFGGGYQQQTGGGNWQQAQRGPTLEDACNVLGVKPTDDATTIKRAYRKLMSEHHPDKLVAKGLPPEMMEMAKQKAQEIQQAYELIKQQKGFK	–	6.42 ± 1.5 h	–	5.92 ± 0.42 h	5.91 ± 0.58 h	2.98 ± 0.14 h	5.97 ± 0.2 h	6.24 ± 0.77 h	11.8 ± 1 h	6.61 ± 0.12 h	12.7 ± 1 h	11.2 ± 0.66 h
MRADKSLSPFEIRVYRHYRIVHGTRVALAFLLTFLIIRLFTIPESTWPLVTMVVIMGPISFWGNVVPRAFERIGGTVLGSILGLIALQLELISLPLMLVWCAAAMFLCGWLALGKKPYQGLLIGVTLAIVVGSPTGEIDTALWRSGDVILGSLLAMLFTGIWPQRAFIHWRIQLAKSLTEYNRVYQSAFSPNLLERPRLESHLQKLLTDAVKMRGLIAPASKETRIPKSIYEGIQTINRNLVCMLELQINAYWATRPSHFVLLNAQKLRDTQHMMQQILLSLVHALYEGNPQPVFANTEKLNDAVEELRQLLNNHHDLKVVETPIYGYVWLNMETAHQLELLSNLICRALRK	6.005 ± 0.0077 h	–	5.415 ± 0.036 h	6.43 ± 0.51 h	5.53 ± 1.8 h	3.27 ± 0.35 h	5.4 ± 0.19 h	5.61 ± 0.075 h	7.75 ± 6 h	4.76 ± 2.1 h	10.6 ± 3.9 h	11.5 ± 0.28 h
MRAKLLGIVLTTPIAISSFASTETLSFTPDNINADISLGTLSGKTKERVYLAEEGGRKVSQLDWKFNNAAIIKGAINWDLMPQISIGAAGWTTLGSRGGNMVDQDWMDSSNPGTWTDESRHPDTQLNYANEFDLNIKGWLLNEPNYRLGLMAGYQESRYSFTARGGSYIYSSEEGFRDDIGSFPNGERAIGYKQRFKMPYIGLTGSYRYEDFELGGTFKYSGWVESSDNDEHYDPGKRITYRSKVKDQNYYSVAVNAGYYVTPNAKVYVEGAWNRVTNKKGNTSLYDHNNNTSDYSKNGAGIENYNFITTAGLKYTF	–	6.57 ± 0.46 h	6.305 ± 0.013 h	6.712 ± 0.042 h	5.81 ± 0.35 h	3.21 ± 0.091 h	6.17 ± 0.45 h	6.05 ± 0.22 h	12.2 ± 2.6 h	6.51 ± 0.55 h	13.498 ± 0.0072 h	11.5 ± 0.18 h
